Measurements reported in the supplement of paper PMC9732359.
± gives the uncertainty stated by the source.

Assay: protein stability index of a GFP-peptide fusion (yeast GPS) (PSI 1-4); higher = more stable; sorted into four equal gates, so the index is relative within each strain
Summary of the method: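 For each peptide, the protein stability index sums the read frequency in every gate after multiplying it by the gate number. Read frequencies came from plasmids that were PCR-amplified from each gate and Illumina-sequenced, with reads assigned to strains by barcodes. The gates were four equal bins of GFP/Cherry fluorescence ratio applied to mid-log yeast in leucine-free medium carrying a pooled library of tiled 17-residue yeast protein peptides fused downstream of GFP on a Cherry-expressing plasmid.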

| Sequence | protein stability index (doa10∆) | protein stability index (pdr5∆) | protein stability index (san1∆) | protein stability index (ubr1∆) |
| --- | --- | --- | --- | --- |
| YQNRSTRSQFCLNTQRG [RRI1] | 2.8 ± 0.054 | 3.09 ± 0.063 | 3.1 ± 0.046 | 2.97 ± 0.034 |
| KLDENNAQLSCITKQDG [PUP2] | 2.79 ± 0.12 | 3.13 ± 0.087 | 3.11 ± 0.098 | 3.06 ± 0.088 |
| NIEERKEKIQHELGINI [BRR2] | 3.02 ± 0.094 | 3.34 ± 0.075 | 3.52 ± 0.075 | 3.22 ± 0.1 |
| SEYDRGVSTFSPEGRLF [PUP2] | 3.43 ± 0.1 | 3.28 ± 0.1 | 3.32 ± 0.096 | 3.31 ± 0.065 |
| INGWELTKAQKYLEQVL [RPL17A] | 3.34 ± 0.06 | 3.44 ± 0.053 | 3.4 ± 0.036 | 3.36 ± 0.046 |
| LPVKWETTTQFKATHIL [FAS1] | 2.52 ± 0.06 | 2.32 ± 0.057 | 2.23 ± 0.063 | 2.34 ± 0.04 |
| LFLYKELVKAHLGERAA [RPC82] | 2.72 ± 0.086 | 2.96 ± 0.09 | 2.88 ± 0.061 | 2.77 ± 0.11 |
| SCAIHARIVRVRSREDR [RPS26A] | 2.41 ± 0.14 | 1.39 ± 0.11 | 1.4 ± 0.18 | 2.62 ± 0.089 |
| NFNSSLHKRQQFSESTH [YJL039C/NUP192] | 3.12 ± 0.12 | 3.14 ± 0.08 | 2.82 ± 0.063 | 3.03 ± 0.061 |
| TVENPLRNWEELNIIPR [PRP28] | 1.49 ± 0.041 | 1.9 ± 0.054 | 1.48 ± 0.086 | 1.77 ± 0.046 |
| GSTLNVSQMVAVVGQQI [RPO31] | 3.15 ± 0.14 | 2.94 ± 0.1 | 2.84 ± 0.16 | 2.82 ± 0.15 |
| VQVGPMKVFVTKHLMPQ [RPB7] | 2.54 ± 0.047 | 2.37 ± 0.041 | 2.14 ± 0.062 | 2.52 ± 0.042 |
| RINSTDEDLHEFQIEDA [SRB8] | 2.86 ± 0.14 | 2.87 ± 0.078 | 2.86 ± 0.12 | 3.22 ± 0.2 |
| SNEFVPNTSDNNNNSNN [SWI1] | 2.59 ± 0.1 | 2.79 ± 0.11 | 2.71 ± 0.095 | 2.88 ± 0.066 |
| EALVERRRAFKRSQKKH [RPB4] | 3.12 ± 0.099 | 3.2 ± 0.081 | 3.22 ± 0.062 | 3.31 ± 0.11 |
| IQVLTEASSLGYLDDSE [IRR1] | 1.3 ± 0.068 | 1.56 ± 0.057 | 1.76 ± 0.1 | 1.42 ± 0.055 |
| YITAKNNVVINFKDMSH [PRP8] | 2.26 ± 0.052 | 2.02 ± 0.047 | 2.42 ± 0.063 | 2.14 ± 0.043 |
| TTMFENTGWSCSRIIKI [RGR1] | 3.61 ± 0.2 | 3.45 ± 0.13 | 3.37 ± 0.11 | 3.51 ± 0.1 |
| TSIARIGDYILKSPVLS [QCR7] | 1.5 ± 0.045 | 1.72 ± 0.045 | 1.49 ± 0.075 | 1.98 ± 0.033 |
| IRTILVNIHHLLNEYRP [MED7] | 2.21 ± 0.064 | 2 ± 0.065 | 1.65 ± 0.12 | 1.58 ± 0.053 |
| SVIQLCGGINDSIPYPQ [ECM29] | 3.16 ± 0.17 | 2.59 ± 0.23 | 2.57 ± 0.13 | 2.88 ± 0.078 |
| MYCRPAPSDFSENQRQI [GRR1] | 3.13 ± 0.085 | 2.62 ± 0.084 | 3.02 ± 0.078 | 2.66 ± 0.082 |
| KQQPTMQANKLDSQETP [SWI3] | 2.95 ± 0.12 | 2.98 ± 0.073 | 2.92 ± 0.081 | 2.95 ± 0.071 |

| Sequence | protein stability index (doa10∆) | protein stability index (pdr5∆) | protein stability index (san1∆) | protein stability index (ubr1∆) |
| --- | --- | --- | --- | --- |
| YNDSATSGEAAALGMGL [RPN2] | 2.32 ± 0.096 | 2.45 ± 0.11 | 2.99 ± 0.078 | 2.43 ± 0.084 |
| VVRIKGINKIPPKPRKV [RPL7A] | 1.94 ± 0.043 | 2.21 ± 0.055 | 2.57 ± 0.063 | 2.44 ± 0.047 |
| FLLTQSKVSIEQRKEAA [RPN7] | 2.27 ± 0.13 | 2.53 ± 0.15 | 2.42 ± 0.088 | 2.48 ± 0.058 |
| LVRSIIAFDDLIENKIQ [RPN8] | 1.94 ± 0.075 | 1.92 ± 0.12 | 2.45 ± 0.082 | 2.43 ± 0.099 |
| LELQVAKTFIDLESSSP [RPS7B] | 3.17 ± 0.071 | 3.2 ± 0.063 | 2.96 ± 0.11 | 3.11 ± 0.064 |
| KKEENETISNVAKTAPN [SNF2] | 2.86 ± 0.072 | 3.03 ± 0.065 | 2.52 ± 0.1 | 2.94 ± 0.047 |
| LLKKIIFEKELMYQIKK [SRB4] | 2.8 ± 0.073 | 2.67 ± 0.083 | 2.32 ± 0.09 | 2.17 ± 0.05 |
| LQRPTATDEESVRLQRF [CSN12] | 2.75 ± 0.089 | 2.98 ± 0.12 | 2.97 ± 0.1 | 3.16 ± 0.1 |
| NLTIHFGGEKGKRIREN [FAS1] | 3.39 ± 0.1 | 3.01 ± 0.18 | 3.05 ± 0.092 | 3.31 ± 0.075 |
| WYEASTWIQQFKSTMLQ [ARP7] | 2.54 ± 0.078 | 2.68 ± 0.069 | 2.6 ± 0.093 | 2.14 ± 0.056 |
| QKTVFDELCKLVTCEGS [SRP54] | 1.19 ± 0.1 | 1.48 ± 0.091 | 1.25 ± 0.18 | 1.14 ± 0.086 |
| QIANEFNTQQGIKKHSL [YDL116W/NUP84] | 3.01 ± 0.055 | 3.3 ± 0.049 | 3.18 ± 0.04 | 3.11 ± 0.038 |
| IHLNELLTNDESAFENL [SNF12] | 2.73 ± 0.057 | 2.91 ± 0.052 | 2.88 ± 0.067 | 3.03 ± 0.053 |
| VNDRSDISDSEGGLFEC [PCI8] | 3.38 ± 0.2 | 3.11 ± 0.12 | 3.45 ± 0.071 | 3.08 ± 0.11 |
| KIDLASGKITDFIKFDA [RPS4A] | 3.26 ± 0.072 | 3.21 ± 0.078 | 3.13 ± 0.07 | 3.35 ± 0.082 |
| LARASGNYVIIIGHNPD [RPL2A] | 2.8 ± 0.087 | 2.89 ± 0.089 | 2.85 ± 0.096 | 2.68 ± 0.097 |
| MAPSAKATAAKKAVVKG [RPL25] | – | 2.56 ± 0.15 | – | – |
| KHYKNIPRNSPLSDLKK [RPC82] | 2.88 ± 0.15 | 2.97 ± 0.17 | 2.59 ± 0.19 | 2.97 ± 0.083 |
| LPLATQQQVLNKLRQQA [SNF5] | 2.56 ± 0.27 | – | – | – |
| FFEMLISKSLTFSQESG [RRI2] | 2.12 ± 0.082 | 1.45 ± 0.059 | 1.25 ± 0.12 | 1.66 ± 0.13 |
| AQFVSNKQYHQANSNLT [NUT1] | 2.94 ± 0.081 | 3.21 ± 0.076 | 3 ± 0.1 | 3.23 ± 0.092 |
| KFRSSILRKSFDFLMNM [RPN2] | 2.1 ± 0.13 | 2.4 ± 0.1 | 2.04 ± 0.12 | 2.4 ± 0.072 |
| KKLSINSAARNIQHLLY [PRE7] | 2.68 ± 0.051 | 2.88 ± 0.062 | 2.81 ± 0.044 | 2.8 ± 0.056 |

| Sequence | protein stability index (doa10∆) | protein stability index (pdr5∆) | protein stability index (san1∆) | protein stability index (ubr1∆) |
| --- | --- | --- | --- | --- |
| SKSESDSQIVTPGELVT [RRP4] | 3.07 ± 0.11 | 3.17 ± 0.066 | 2.88 ± 0.077 | 2.83 ± 0.066 |
| EWDMLNVEEEQIVPYIE [BRR2] | 3.2 ± 0.17 | 3.41 ± 0.18 | 3.02 ± 0.24 | 3.45 ± 0.29 |
| NGKTRTLENTLKAAFVA [RPS2] | 2.85 ± 0.11 | 2.8 ± 0.14 | 3 ± 0.089 | 2.67 ± 0.085 |
| RQSKSSGKSNTSNDASN [ITC1] | 3.09 ± 0.095 | 3.28 ± 0.08 | 3.34 ± 0.065 | 3.22 ± 0.076 |
| IQEANSVDMSALKDPQT [RIP1] | – | 3.43 ± 0.21 | – | 3.26 ± 0.077 |
| PSEILHLILDKLNQKYD [GRR1] | 3.14 ± 0.096 | 2.48 ± 0.068 | 2.54 ± 0.19 | 2.46 ± 0.061 |
| ESLSEEHASLLVRDSKP [MED8] | 2.53 ± 0.084 | 3.04 ± 0.12 | 2.69 ± 0.086 | 2.59 ± 0.099 |
| VDVNNKFIALCEQQPSQ [SIN4] | 2.82 ± 0.051 | 2.96 ± 0.05 | 3.18 ± 0.052 | 3 ± 0.059 |
| TKPSDLTIKDIVLGVKD [RPO21] | 2.51 ± 0.085 | 2.15 ± 0.1 | 1.95 ± 0.15 | 2.83 ± 0.044 |
| PYFPGGSIAMARVLFDD [CYT1] | 2.29 ± 0.14 | 1.88 ± 0.1 | 2.61 ± 0.11 | 2.69 ± 0.093 |
| NNVYFAAGALFVSSGFD [RPN14] | 1.78 ± 0.13 | 2.81 ± 0.15 | 1.92 ± 0.29 | 2.21 ± 0.17 |
| DSKGSLYSVKFAPAHLG [YGL100W/SEH1] | 2.66 ± 0.11 | 3.05 ± 0.13 | 2.59 ± 0.1 | 2.81 ± 0.062 |
| QQMIITRLKSLLKPFHV [SIR3] | 2.17 ± 0.07 | 2.08 ± 0.053 | 2 ± 0.073 | 1.99 ± 0.035 |
| ANNNGSNLQRAQNVPMN [GAL11] | 3.09 ± 0.096 | 3.54 ± 0.12 | 3.17 ± 0.099 | 3.09 ± 0.085 |
| NLFSSTGFKGLLIELQA [SRB2] | 2.6 ± 0.12 | 2.87 ± 0.069 | 2.92 ± 0.058 | 2.94 ± 0.042 |
| FEGNVATKAINGCIFTL [PRP8] | 2.57 ± 0.068 | 2.32 ± 0.049 | 1.97 ± 0.053 | 2.71 ± 0.05 |
| ENITNKVTEKVLTQLTA [CSI1] | 2.62 ± 0.051 | 2.22 ± 0.037 | 2.4 ± 0.041 | 2.69 ± 0.041 |
| TLSFNFSQKANKTKAVD [YOR098C/NUP1] | 2.03 ± 0.085 | 1.55 ± 0.059 | 1.84 ± 0.1 | 1.71 ± 0.057 |
| RFNAKVSMVKRAIDSLI [CDC53] | 1.86 ± 0.071 | 2.12 ± 0.074 | 2.17 ± 0.12 | 2 ± 0.042 |
| VKPISIEAPQFYRYWSA [SWI3] | 2.23 ± 0.036 | 2.09 ± 0.036 | 1.85 ± 0.055 | 2.02 ± 0.032 |
| GLLKRGDTVRILDTSQS [SNU114] | 3.08 ± 0.084 | 3.21 ± 0.1 | 3.15 ± 0.054 | 2.86 ± 0.1 |
